In article PMC10397247:
Read-outs that look alike come from different tables or passages of the source. Each block holds one binder with its values, some of them ahead of it.

Assays:
Test in all cases: two-hybrid library CCmax;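 further: natural log of median RNA to DNA barcode read ratio; higher means stronger binding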
[1] = target: T1, 4H1626-AA
T1 chain: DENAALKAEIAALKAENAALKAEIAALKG

[2] = target: T2, 4H1877-AA; conditions: mean of both orientations
T2 chain: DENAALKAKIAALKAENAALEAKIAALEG

[3] = target: T3, 4H2162-AA; conditions: mean of both orientations
T3 chain: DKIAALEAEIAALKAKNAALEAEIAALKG

[4] = target: T4, 4H3009-AA; conditions: mean of both orientations
T4 chain: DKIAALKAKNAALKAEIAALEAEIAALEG

[5] = target: T5, 4H3016-AA; conditions: mean of both orientations
T5 chain: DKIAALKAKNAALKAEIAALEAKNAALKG

[6] = target: T6, 4H3410-AA; conditions: mean of both orientations
T6 chain: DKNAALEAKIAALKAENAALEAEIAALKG

[7] = target: T7, 4H3590-AA
T7 chain: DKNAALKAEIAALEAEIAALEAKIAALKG

[8] = target: T8, 4H536-AA; conditions: mean of both orientations
T8 chain: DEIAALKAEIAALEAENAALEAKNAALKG

[9] = target: T9, 4H710-AA; conditions: mean of both orientations
T9 chain: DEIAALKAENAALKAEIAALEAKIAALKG

[10] = target: T10, 4H930-AA; conditions: mean of both orientations
T10 chain: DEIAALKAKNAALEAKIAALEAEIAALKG

[11] = target: T11, 4H3049-AA; conditions: mean of both orientations
T11 chain: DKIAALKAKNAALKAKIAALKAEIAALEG

[12] = target: T12, O11-AA; conditions: mean of both orientations
T12 chain: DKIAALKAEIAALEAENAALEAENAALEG

[13] = target: T13, O14-AA; conditions: mean of both orientations
T13 chain: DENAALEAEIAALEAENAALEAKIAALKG

[14] = target: T14, 4H2553-AA
T14 chain: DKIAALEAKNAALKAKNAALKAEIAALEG

[15] = target: T15, 4H2648-AA; conditions: mean of both orientations
T15 chain: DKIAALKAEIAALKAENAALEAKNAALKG

[16] = target: T16, 4H3056-AA; conditions: mean of both orientations
T16 chain: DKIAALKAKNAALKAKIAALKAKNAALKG

[17] = target: T17, 4H32-AA; conditions: mean of both orientations
T17 chain: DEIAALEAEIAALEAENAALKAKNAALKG

[18] = target: T18, 4H340-AA
T18 chain: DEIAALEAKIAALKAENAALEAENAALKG

[19] = target: T19, 4H2931-AA; conditions: mean of both orientations
T19 chain: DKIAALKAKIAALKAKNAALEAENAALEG

[20] = target: T20, 4H3438-AA; conditions: mean of both orientations
T20 chain: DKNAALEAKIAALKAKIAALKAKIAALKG

[21] = target: T21, 4H56-AA; conditions: mean of both orientations
T21 chain: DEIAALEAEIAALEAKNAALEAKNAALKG

[22] = target: T22, 4H1310-AA; conditions: mean of both orientations
T22 chain: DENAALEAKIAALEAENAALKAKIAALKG

[23] = target: T23, 4H1401-AA
T23 chain: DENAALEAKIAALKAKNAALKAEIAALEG

[24] = target: T24, 4H1594-AA; conditions: mean of both orientations
T24 chain: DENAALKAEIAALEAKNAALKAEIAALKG

[25] = target: T25, 4H1629-AA; conditions: mean of both orientations
T25 chain: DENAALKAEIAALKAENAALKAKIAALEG

[26] = target: T26, 4H2190-AA; conditions: mean of both orientations
T26 chain: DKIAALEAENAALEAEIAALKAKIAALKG

[27] = target: T27, 4H2354-AA; conditions: mean of both orientations
T27 chain: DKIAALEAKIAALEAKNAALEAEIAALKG

[28] = target: T28, 4H2617-AA; conditions: mean of both orientations
T28 chain: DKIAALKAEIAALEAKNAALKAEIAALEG

[29] = target: T29, 4H2642-AA; conditions: mean of both orientations
T29 chain: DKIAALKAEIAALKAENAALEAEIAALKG

[30] = target: T30, 4H2729-AA; conditions: mean of both orientations
T30 chain: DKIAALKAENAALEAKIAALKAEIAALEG

[31] = target: T31, 4H2837-AA
T31 chain: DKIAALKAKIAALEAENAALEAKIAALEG

[32] = target: T32, 4H3343-AA; conditions: mean of both orientations
T32 chain: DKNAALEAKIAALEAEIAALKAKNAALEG

[33] = target: T33, 4H3627-AA; conditions: mean of both orientations
T33 chain: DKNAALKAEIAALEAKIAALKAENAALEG

[34] = target: T34, 4H3655-AA; conditions: mean of both orientations
T34 chain: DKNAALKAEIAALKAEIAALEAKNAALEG

[35] = target: T35, 4H678-AA; conditions: mean of both orientations
T35 chain: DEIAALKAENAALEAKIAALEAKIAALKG

[36] = target: T36, 4H794-AA; conditions: mean of both orientations
T36 chain: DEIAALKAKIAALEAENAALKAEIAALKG

[37] = target: T37, 4H906-AA; conditions: mean of both orientations
T37 chain: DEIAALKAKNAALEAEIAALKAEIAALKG

[38] = target: T38, 4H2580-AA; conditions: mean of both orientations
T38 chain: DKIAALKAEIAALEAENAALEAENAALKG

[39] = target: T39, 4H2961-AA; conditions: mean of both orientations
T39 chain: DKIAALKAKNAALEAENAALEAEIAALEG

[40] = target: T40, 4H3939-AA; conditions: mean of both orientations
T40 chain: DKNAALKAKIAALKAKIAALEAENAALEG

[41] = target: T41, 4H3969-AA; conditions: mean of both orientations
T41 chain: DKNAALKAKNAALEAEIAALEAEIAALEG

[42] = target: T42, P10-AA; conditions: mean of both orientations
T42 chain: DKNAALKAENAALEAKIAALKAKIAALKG

[43] = target: T43, P9-AA; conditions: mean of both orientations
T43 chain: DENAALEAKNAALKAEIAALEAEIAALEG

interaction score [1]: 1.63
interaction score [2]: -0.845
interaction score [3]: -1.39
interaction score [4]: -1.64
interaction score [5]: -1.84
interaction score [6]: -0.738
interaction score ([7]; mean of both orientations): -1.51
interaction score [8]: -1.73
interaction score [9]: -1.04
interaction score [10]: -1.25
Binder: DENAALKAEIAALKAENAALKAEIAALKG [4H1626-AA]

interaction score ([14]; mean of both orientations): -1.84
interaction score [15]: -1.59
interaction score [16]: -1.58
interaction score [17]: -1.5
interaction score ([18]; mean of both orientations): -1.97
Binder: DENAALKAKIAALEAKNAALEAKIAALEG [4H1845-AA]

interaction score [19]: -1.52
interaction score [4]: 0.841
interaction score [5]: -0.709
interaction score [6]: -0.76
interaction score [20]: -1.2
interaction score [7]: -1.09
interaction score [8]: -1.37
interaction score [21]: -1.23
interaction score [9]: 0.741
interaction score [10]: -1.04
Binder: DKIAALEAENAALKAEIAALKAKIAALEG [4H2253-AA]

interaction score [26]: -1.12
interaction score [27]: -1.76
interaction score [28]: 0.892
interaction score [29]: 0.223
interaction score [30]: -1.3
interaction score [31]: 0.959
interaction score [19]: -1.58
interaction score [32]: -0.847
interaction score [20]: -1.07
interaction score [33]: -1.58
interaction score [34]: -1.37
interaction score [21]: -0.766
interaction score [35]: -0.25
interaction score [36]: -1.31
interaction score [37]: -1.29
Binder: DKIAALEAEIAALKAKNAALEAKIAALEG [4H2165-AA]

interaction score [23]: -1.49
interaction score [24]: -0.109
interaction score [25]: -1.08
interaction score [26]: 1.09
interaction score [27]: -1.3
interaction score [14]: -1.65
interaction score [28]: -0.502
interaction score [29]: 1.3
interaction score [15]: 0.46
interaction score [30]: 0.705
interaction score ([31]; mean of both orientations): 1.61
interaction score [16]: -1.2
interaction score [17]: 0.0762
interaction score [32]: -1.44
interaction score ([18]; mean of both orientations): -1.93
interaction score [33]: -1.38
interaction score [34]: -1.48
interaction score [35]: -0.21
interaction score [36]: -1.02
interaction score [37]: -1.91
interaction score [42]: -0.931
interaction score [43]: -0.999
Binder: DENAALEAKIAALKAKNAALKAEIAALEG [4H1401-AA]

interaction score [33]: -1.29
interaction score [34]: -1.72
interaction score [35]: -0.771
interaction score [36]: -0.14
interaction score [37]: -1.72
interaction score [42]: 0.12
interaction score [43]: -0.51
Binder: DKNAALKAEIAALEAENAALEAKIAALKG [4H3606-AA]

Further lines, the binder ahead of its results:

Binder: DENAALEAKIAALKAEIAALEAKIAALKG [4H1350-AA]
interaction score [11]: 0.379
interaction score ([7]; mean of both orientations): 2.09
interaction score [12]: -0.612
interaction score [13]: -0.655

Binder: DENAALEAKIAALKAKIAALKAEIAALEG [4H1385-AA]
interaction score ([1]; mean of both orientations): -1.57
interaction score [2]: -0.357
interaction score [3]: -1.63
interaction score [4]: 1.33
interaction score [5]: -0.959
interaction score [11]: -0.544
interaction score [6]: -0.247
interaction score ([7]; mean of both orientations): 2.4
interaction score [8]: 1.04
interaction score [9]: -0.564
interaction score [10]: -1.18
interaction score [12]: 0.214
interaction score [13]: 2.08

Binder: DENAALEAENAALEAEIAALEAEIAALEG [4H1153-AA]
interaction score [22]: -1.28
interaction score ([23]; mean of both orientations): -0.873
interaction score [24]: -1.13
interaction score [25]: -1.34
interaction score [26]: -0.187
interaction score [27]: -1.55
interaction score ([14]; mean of both orientations): -0.371
interaction score [28]: -2.01
interaction score [29]: -1.43
interaction score [15]: -1.19
interaction score [30]: 0.0308
interaction score ([31]; mean of both orientations): -1.49
interaction score [16]: 1.46
interaction score [17]: -2.43
interaction score [32]: -0.81
interaction score [18]: -1.49
interaction score [33]: -0.179
interaction score [34]: -0.01
interaction score [35]: -0.487
interaction score [36]: -1.49
interaction score [37]: -1.21

Binder: DENAALEAENAALKAKIAALKAEIAALEG [4H1257-AA]
interaction score [38]: -1.12
interaction score [39]: -1.08
interaction score [11]: -0.309
interaction score [40]: -1.27
interaction score [41]: 0.285

Binder: DEIAALEAENAALKAKNAALKAEIAALEG [4H249-AA]
interaction score [38]: -0.825
interaction score [19]: -1.53
interaction score [39]: 1.36
interaction score [11]: -1.71
interaction score [20]: -1.6
interaction score [40]: -1.85
interaction score [41]: -1.58
interaction score [21]: -1.62

Binder: DEIAALEAENAALEAKIAALKAENAALEG [4H171-AA]
interaction score [2]: -1.1
interaction score [3]: -1.5
interaction score [4]: 2.13
interaction score [5]: 1.66
interaction score [6]: -0.741
interaction score ([7]; mean of both orientations): -0.733
interaction score [8]: -1.32
interaction score [9]: 0.905
interaction score [10]: -1.29
interaction score [12]: -1.82
interaction score [13]: -1.07
interaction score [42]: -1.48
interaction score [43]: -0.774

Binder: DENAALEAEIAALEAKIAALEAKNAALKG [4H1064-AA]
interaction score [38]: 1.19
interaction score [39]: -1.24
interaction score [11]: 0.863
interaction score [40]: 2.3
interaction score [41]: -1.31
